Assay results: paper PMC8433531 (Proceedings of the National Academy of Sciences of the …, 2021)

Legend:
SARS-CoV-2 [1] = format: cell-based
SARS-CoV-2 [2] = experiment: Hit validation across cell systems; format: cell-based; settings: Huh7, LNCaP, Caco-2, Vero E6, iAEC2
SARS-CoV-2 [3] = format: cell-based; remark: listed apart in the source
[4] = tested on: IFNβ and interferon-stimulated gene transcripts; format: cell-based, human; settings: virus-infected Huh7, MOI 0.2, 48 h, 6250 nM
SARS-CoV-2 [5] = experiment: microbe, parasite or virus in culture; format: cell-based
SARS-CoV-2 [6] = format: cell-based; remark: listed apart in the source

Molecule	antiviral activity at high MOI (SARS-CoV-2 [1])	antiviral activity against SARS-CoV-2 in iAECs (SARS-CoV-2 [1]; iAEC2)	efficacy across all tested cell systems (SARS-CoV-2 [2])	viral replication (viral RNA by RT-qPCR) (SARS-CoV-2 [3])	IFNβ and interferon-stimulated gene transcripts [4]	IC50 (SARS-CoV-2 [5]) [nM]	antiviral activity through a range of MOIs (SARS-CoV-2 [6])	antiviral activity when added after infection (SARS-CoV-2 [6])	antiviral activity (iron chelation control) (SARS-CoV-2 [6]; Huh7, 6,250 nM)
Human Lactoferrin: native human lactoferrin (Creative BioMart; LFT-8196H) (protein, UniProt P02788 20-710, looked up) Lactotransferrin: GRRRSVQWCAVSQPEATKCFQWQRNMRKVRGPPVSCIKRDSPIQCIQAIAENRADAVTLDGGFIYEAGLAPYKLRPVAAEVYGTERQPRTHYYAVAVVKKGGSFQLNELQGLKSCHTGLRRTAGWNVPIGTLRPFLNWTGPPEPIEAAVARFFSASCVPGADKGQFPNLCRLCAGTGENKCAFSSQEPYFSYSGAFKCLRDGAGDVAFIRESTVFEDLSDEAERDEYELLCPDNTRKPVDKFKDCHLARVPSHAVVARSVNGKEDAIWNLLRQAQEKFGKDKSPKFQLFGSPSGQKDLLFKDSAIGFSRVPPRIDSGLYLGSGYFTAIQNLRKSEEEVAARRARVVWCAVGEQELRKCNQWSGLSEGSVTCSSASTTEDCIALVLKGEADAMSLDGGYVYTAGKCGLVPVLAENYKSQQSSDPDPNCVDRPVEGYLAVAVVRRSDTSLTWNSVKGKKSCHTAVDRTAGWNIPMGLLFNQTGSCKFDEYFSQSCAPGSDPRSNLCALCIGDEQGENKCVPNSNERYYGYTGAFRCLAENAGDVAFVKDVTVLQNTDGNNNEAWAKDLKLADFALLCLDGKRKPVTEARSCHLAMAPNHAVVSRMDKVERLKQVLLHQQAKFGRNGSDCPDKFCLFQSETKNLLFNDNTECLARLHGKTTYEKYLGPQYVAGITNLKKCSTSPLLEACEFLRK	retained antiviral activity	–	–	–	–	–	–	–	–
Lactoferrin (protein, UniProt P24627 20-708, looked up, iron-free apo form) Lactotransferrin: APRKNVRWCTISQPEWFKCRRWQWRMKKLGAPSITCVRRAFALECIRAIAEKKADAVTLDGGMVFEAGRDPYKLRPVAAEIYGTKESPQTHYYAVAVVKKGSNFQLDQLQGRKSCHTGLGRSAGWIIPMGILRPYLSWTESLEPLQGAVAKFFSASCVPCIDRQAYPNLCQLCKGEGENQCACSSREPYFGYSGAFKCLQDGAGDVAFVKETTVFENLPEKADRDQYELLCLNNSRAPVDAFKECHLAQVPSHAVVARSVDGKEDLIWKLLSKAQEKFGKNKSRSFQLFGSPPGQRDLLFKDSALGFLRIPSKVDSALYLGSRYLTTLKNLRETAEEVKARYTRVVWCAVGPEEQKKCQQWSQQSGQNVTCATASTTDDCIVLVLKGEADALNLDGGYIYTAGKCGLVPVLAENRKSSKHSSLDCVLRPTEGYLAVAVVKKANEGLTWNSLKDKKSCHTAVDRTAGWNIPMGLIVNQTGSCAFDEFFSQSCAPGADPKSRLCALCAGDDQGLDKCVPNSKEKYYGYTGAFRCLAEDVGDVAFVKNDTVWENTNGESTADWAKNLNREDFRLLCLDGTRKPVTEAQSCHLAVAPNHAVVSRSDRAAHVKQVLLHQQALFGKNGKNCPDKFCLFKSETKNLLFNDNTECLAKLGGRPTYEEYLGTEYVTAIANLKKCSTSPLLEACAFLTR	retained antiviral activity	dose-responsive antiviral activity	maintained efficacy across all tested cell systems	dose-dependent inhibition of viral replication	up-regulation	440	retained antiviral activity	maintained antiviral activity	–
hololactoferrin: iron-saturated hololactoferrin (Sigma-Aldrich; L4765) (protein, UniProt P24627 20-708, looked up, iron-saturated) Lactotransferrin: APRKNVRWCTISQPEWFKCRRWQWRMKKLGAPSITCVRRAFALECIRAIAEKKADAVTLDGGMVFEAGRDPYKLRPVAAEIYGTKESPQTHYYAVAVVKKGSNFQLDQLQGRKSCHTGLGRSAGWIIPMGILRPYLSWTESLEPLQGAVAKFFSASCVPCIDRQAYPNLCQLCKGEGENQCACSSREPYFGYSGAFKCLQDGAGDVAFVKETTVFENLPEKADRDQYELLCLNNSRAPVDAFKECHLAQVPSHAVVARSVDGKEDLIWKLLSKAQEKFGKNKSRSFQLFGSPPGQRDLLFKDSALGFLRIPSKVDSALYLGSRYLTTLKNLRETAEEVKARYTRVVWCAVGPEEQKKCQQWSQQSGQNVTCATASTTDDCIVLVLKGEADALNLDGGYIYTAGKCGLVPVLAENRKSSKHSSLDCVLRPTEGYLAVAVVKKANEGLTWNSLKDKKSCHTAVDRTAGWNIPMGLIVNQTGSCAFDEFFSQSCAPGADPKSRLCALCAGDDQGLDKCVPNSKEKYYGYTGAFRCLAEDVGDVAFVKNDTVWENTNGESTADWAKNLNREDFRLLCLDGTRKPVTEAQSCHLAVAPNHAVVSRSDRAAHVKQVLLHQQALFGKNGKNCPDKFCLFKSETKNLLFNDNTECLAKLGGRPTYEEYLGTEYVTAIANLKKCSTSPLLEACAFLTR	–	–	–	–	–	–	–	–	retained activity
